Experimental data from the DeepSol protein solubility set.

test: soluble on expression in E. coli; label from the status in PepcDB or PDB records

Sequence	soluble on expression in E. coli
MDVFELTKKTLLAVISESSSSDDYLEALAEIEGLVKHEAAATSFQLMERGKVRELAVPKPEFYNKRRKFEDFQEKTVFDWKSEFNLKNAKKVERWTVEEKEKREKQRCFIEVEHYKKKEYLNFLYPGVHYCTCPYFQSTVLQKQTNWICVHILAYYFAKNFGKIERIECKSEIVGLVKKIFIRSIFLEEKK	not soluble
MLRRTLHCCTAVRHTSVPSFMQHPVEMAFYFPRFHPDTHVNAAGIPELIDAVGLMTRHSRSSRAESTASASTSAAESAMSRALPPTRWTTTVSATAQPTTDASVVEAQKDNAKSLLLLERGIDILNSVGGVRNPTVANLLRPLYAARFEMLNGSEHLPRSEYAKRMHVHKAILQQAAPLLYYDAWDKSDVHQLDTSCVLVGHFMKAFCALHPRPFHPVAAPATSGGAGSSQASSTTTTASSSSSSNSNSNVTSSSSAQSTPKGAFNPAEWKMAVGDDGEGAYLTLSIVQDRVEELLRLATAAYDKHGSTHPELRWLRPKLLVLKGLLTIPLTGHLLHAQRCIEEAAHYVDALTKRTNLLLDGLKERTHEPELGLYMLLQAEIAARVFDWDVAPGQVDGDVVNMFTDAAGYYADPPNTTLDGDAIMSERKLAEQRFEVEAYACCLRSYAAFLLGASRPEATSTRDSPVFLAKQLFSLNPLLTVATSSSLIFSDVRNVSELPLDMCRRRTGEALDRALKLNRMLYPDFRQNAPAAATLMTMACMYADTRDYLYATGLFESANKAVTYNFGDTSLEHVFLQKLRYEFLAGVGSEQEAKTASHEVVHLLKRIDALPC	soluble
MAGDPMVRLNVKPTRMELNNLKERLTTAERGHKLLKDKRDELMRRFISLIRENNQLRKEVESYLIDNLKSFAVAKSLKNSQMVEELFSIPSKEIELFVEKENIMSVTVPRMHMNITSQNENSEYSYLSSNSEMDDVFATMNSLIYKLLRLAEVEKTCQLMADEIEKTRRRVNGLEYSIIPNLSETIHYIELKLEEAERANLVRIMKVKLEHHHHHH	not soluble
MSLNSAIKDIEIIEMGEKLRETSSPWSSTILLVKLTSADGLVGYGEAPTTLMTLPVLESMKEVARVFKGKDFFNVEQNVFDFYRNSFYLPVSMEATSALSAFEIASWDLIGKELGTPVYKLIGGEVNHNIRAYANGWYNDCVTPDDFVKKAKEVVKMGFTAMKFDPFGDNYDTITNEGIENARNIVGALRSEFGEKVDLLIEYHGRFSKIAAIKAGMALEEFKPYFYEEPLHPDLDHDLLDLKQYYKVPIALGERVLNKKIFARFISQKLVDIIQPDLTNSGGILEAKKIAAIADGFGIPIAPHNAFGPIQTAATLNVDTTLTNFAIQESFEMFWPDWKKNLMASGYKLENGYFRLTGDAGIGKVNESIVEKYQVSGMEPFDDKEPPWVVSGTFKHYQQKEGHHHHHH	not soluble
STRPVGGTEYSWCRAIDGGTGIAVIALLLSRTPKLQNLQNTLDKLQIYHPTLRSNIRFDASANSFSFVVTSAADSHVEIHPFDSVSTAQIIRDSDDPCADPHRIILEHEMNKNTWINPHRWIKSESRVFIVSLYDLTDDGEQRILTFRLNTAAVDRTAAVTLLREFMKETAADGFGNGPVVAATETAVGLGKAIEELIPSGKGDKPFWARGIDVLGYSLNAFRFSNLNFVDAENSNRRSQLVRLKLDRDQTLKLVAGCKARGLKLWAALASSALIAAYSSKNLPPYQGEKYAVVTLSDCRSILEPPLTSNDFGFYHAGILHTHDLTGEEKLWDLAKRCYDSFTSSKNSNKQFTDMSDLNFLMCKAIENPNLTPSSSLRTAFISIFEDPVIDESPEPELASLGVQDYIGCASIHGVGPSVAVFDALRDGKLDCAFVYPSPLHSREQMDGLIQHMKTILLEGSASSF	soluble
MGSDKIHHHHHHQNTPIGENIELAGENPEELKVIYINKDVSTHFIAMEDIKYVDISVNDIVGDIPTGNSLRIKPTKEGASGVITIVTERFFVQYMLVYSSDLAKAYTRFNIPYADLRSYMNPEVNLTKAQMYDYAHRMFISKNKFYDVSSTSNLMKIVLNNIYTLDKYFFIDISMINKTKIRYDIDQIRFKIEDKKQTKATNFQSIEILPLMQVNKNLVFKKNYRNIFVFEKFTFPDEKVLTIEISEKQISGRTITLRIDYADILHADAFTE	not soluble
